Laboratory results as given in US20190359711A1 (Janssen / Centocor, published 2019).

Columns and labels:
rh-Integrin a4b7 [1] = target: T1, rh-Integrin a4b7 (UniProt P13612 34-977; P26010 20-723); assay: SPR (Biacore 8K), antibody passed over immobilized protein
T1 construct: 'rh-' is not explained
Method: (§1) Non-specific binding of the lead molecule to unrelated surfaces is determined by biosensor technology (Biacore 8K). Antibody is passed over SPR surfaces coated with unrelated proteins. […] Lead molecule is tested at the final concentration of 1 μM. Irrelevant surfaces include negatively charged protein (Soy Trypsin Inhibitor), positively charged protein (Lysozyme and β-defensin), hydrophobic (Rh-integrin a4b7), human IgG, sticky protein (Rh-CD19). Proper controls are used in this experiment. Lead is flown over two surfaces, one is a blank and the other has a molecule directly immobilized. The response unit (RU) level is determined by subtracting the blank RU from the test surface RU. The RU of TMCB150 and the parental mAbs are given below in the table. A response unit ≥100 predicts high risks for non-specific binding to charged/hydrophobic/IgG surfaces which would create challenges during manufacturing and translate to poor PK properties. None of the antibodies show non-specific binding to irrelevant surfaces predicting low to no risks for manufacturing and in-vivo behavior.

rh-CD19 [2] = target: T2, rh-CD19 (UniProt P15391 20-291, limits assumed); assay: as above
T2 construct: 'rh-' is not explained
T2 sequence (looked up): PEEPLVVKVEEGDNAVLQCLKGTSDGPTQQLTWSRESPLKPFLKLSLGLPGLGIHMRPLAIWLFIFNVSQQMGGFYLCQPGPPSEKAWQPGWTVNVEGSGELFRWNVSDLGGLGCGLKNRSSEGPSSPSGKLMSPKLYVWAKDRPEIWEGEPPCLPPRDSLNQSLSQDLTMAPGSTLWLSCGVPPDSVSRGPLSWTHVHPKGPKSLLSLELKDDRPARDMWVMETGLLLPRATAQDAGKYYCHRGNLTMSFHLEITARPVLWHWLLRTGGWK
Method: as §1

B-Defensin-3 [3] = target: T3, B-Defensin-3 (Homo sapiens (Human), UniProt P81534 23-67, not fully specified); assay: as above
T3 construct: also called β-defensin
T3 peptide: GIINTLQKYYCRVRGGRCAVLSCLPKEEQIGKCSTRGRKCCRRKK
Method: as §1

rh-Integrin a4b7 [4] = target: T1, rh-Integrin a4b7; assay: SPR (Biacore 8K), 1 µM antibody over immobilized protein, blank subtracted
Method: as §1

Soy Trypsin Inhibitor = target: T4, Soy Trypsin Inhibitor (soy); assay: as above
T4 construct: also called STI
Method: as §1

rh-CD19 [5] = target: T2, rh-CD19; assay: as above
Method: as §1

Lysozyme = assay: as above
Method: as §1

Human IgG = assay: as above
Method: as §1

B-Defensin-3 [6] = target: T3, B-Defensin-3; assay: as above
Method: as §1

T1 sequence (P13612 34-977, chain 1 of 2): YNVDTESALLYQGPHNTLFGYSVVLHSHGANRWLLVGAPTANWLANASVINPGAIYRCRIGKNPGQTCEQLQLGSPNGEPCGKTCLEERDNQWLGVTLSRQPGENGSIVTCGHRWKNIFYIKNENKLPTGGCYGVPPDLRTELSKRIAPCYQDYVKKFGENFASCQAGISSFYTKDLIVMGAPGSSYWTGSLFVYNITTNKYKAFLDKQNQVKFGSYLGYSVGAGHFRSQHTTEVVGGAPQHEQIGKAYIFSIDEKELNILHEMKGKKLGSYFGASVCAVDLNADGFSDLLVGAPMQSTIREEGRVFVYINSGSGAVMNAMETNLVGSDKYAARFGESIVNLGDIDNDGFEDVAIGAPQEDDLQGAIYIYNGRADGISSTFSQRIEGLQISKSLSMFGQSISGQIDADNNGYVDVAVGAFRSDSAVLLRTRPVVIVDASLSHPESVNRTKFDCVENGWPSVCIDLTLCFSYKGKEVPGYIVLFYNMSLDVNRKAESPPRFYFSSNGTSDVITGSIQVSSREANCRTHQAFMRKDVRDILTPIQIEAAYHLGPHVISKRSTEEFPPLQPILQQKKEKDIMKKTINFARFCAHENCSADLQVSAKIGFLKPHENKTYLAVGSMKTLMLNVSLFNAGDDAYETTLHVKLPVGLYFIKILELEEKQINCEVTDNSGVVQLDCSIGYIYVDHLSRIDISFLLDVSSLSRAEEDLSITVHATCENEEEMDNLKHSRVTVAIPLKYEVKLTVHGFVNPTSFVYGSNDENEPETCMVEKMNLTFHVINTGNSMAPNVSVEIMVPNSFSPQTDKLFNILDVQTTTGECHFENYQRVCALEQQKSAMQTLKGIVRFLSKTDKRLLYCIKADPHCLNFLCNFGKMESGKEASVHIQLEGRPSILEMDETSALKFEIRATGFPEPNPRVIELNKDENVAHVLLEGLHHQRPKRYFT
T1 sequence (P26010 20-723, chain 2 of 2): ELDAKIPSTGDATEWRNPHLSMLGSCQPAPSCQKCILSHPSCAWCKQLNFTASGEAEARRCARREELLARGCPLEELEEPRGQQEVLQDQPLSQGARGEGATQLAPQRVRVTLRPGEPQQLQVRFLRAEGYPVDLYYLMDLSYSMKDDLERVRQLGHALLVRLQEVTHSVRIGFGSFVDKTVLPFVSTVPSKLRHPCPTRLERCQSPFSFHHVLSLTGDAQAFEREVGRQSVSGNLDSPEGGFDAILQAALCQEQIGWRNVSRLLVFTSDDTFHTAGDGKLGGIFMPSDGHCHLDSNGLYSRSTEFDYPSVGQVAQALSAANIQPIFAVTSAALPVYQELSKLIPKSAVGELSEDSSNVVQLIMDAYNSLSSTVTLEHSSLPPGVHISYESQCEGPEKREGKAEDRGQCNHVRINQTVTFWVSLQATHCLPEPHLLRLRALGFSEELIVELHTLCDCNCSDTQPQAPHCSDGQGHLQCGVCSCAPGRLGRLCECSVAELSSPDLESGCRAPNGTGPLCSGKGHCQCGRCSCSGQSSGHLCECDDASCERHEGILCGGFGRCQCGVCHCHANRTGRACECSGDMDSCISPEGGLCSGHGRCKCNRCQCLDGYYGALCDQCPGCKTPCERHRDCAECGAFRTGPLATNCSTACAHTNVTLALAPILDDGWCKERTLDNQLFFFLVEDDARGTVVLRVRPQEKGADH
T4 sequence (P01070 25-205): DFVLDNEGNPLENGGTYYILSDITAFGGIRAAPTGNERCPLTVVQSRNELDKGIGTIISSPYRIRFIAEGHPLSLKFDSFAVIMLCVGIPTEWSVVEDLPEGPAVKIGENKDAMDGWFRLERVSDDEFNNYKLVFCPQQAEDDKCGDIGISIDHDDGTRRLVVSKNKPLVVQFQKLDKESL
Chain of Lysozyme (P00698 19-147): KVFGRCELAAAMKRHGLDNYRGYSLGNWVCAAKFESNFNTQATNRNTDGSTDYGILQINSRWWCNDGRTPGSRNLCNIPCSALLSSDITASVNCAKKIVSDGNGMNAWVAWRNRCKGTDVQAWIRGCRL

B1: TMEB762 (antibody, human IgG4 S228P, kappa, F234A L235A, V domains shown)
VH: EVQLLESGGGLVQPGGSLRLSCAASGFTFSSYSMSWVRQAPGKGLEWVSVISGSGGFTDYADSVKGRFTISRDNSKNTLYLQMNSLRAEDTAVYYCARMPLNSPHDYWGQGTLVTVSS
VL: DIQMTQSPSSLSASVGDRVTITCRASQGIRNDLGWYQQKPGKAPKLLIYAASSLQSGVPSRFSGSGSGTDFTLTISSLQPEDFATYYCLQDYNYPLTFGGGTKVEIKR
notes: IgG4PAA; re-engineered variant of TMEB675 (HC R14P, P20L, H81Q; LC A1D, A91P, Kabat); Bivalent TMEFF2 parent of TMCB150; also called anti-TMEFF2 antibody; VH TMEH459
rh-Integrin a4b7 [1]
  binding result: no binding
rh-CD19 [2]
  binding result: no binding
B-Defensin-3 [3]
  binding result: no binding
rh-Integrin a4b7 [4]
  response unit (RU): 0 RU
Soy Trypsin Inhibitor
  response unit (RU): 0 RU
rh-CD19 [5]
  response unit (RU): 3.3 RU
Lysozyme
  response unit (RU): 4.6 RU
Human IgG
  response unit (RU): 8.4 RU
B-Defensin-3 [6]
  response unit (RU): 4.1 RU

B2: CD3B376 (antibody, V domains shown)
VH: QVQLQQSGPRLVRPSQTLSLTCAISGDSVFNNNAAWSWIRQSPSRGLEWLGRTYYRSKWLYDYAVSVKSRITVNPDTSRNQFTLQLNSVTPEDTALYYCARGYSSSFDYWGQGTLVTVSS
VL: QSALTQPASVSGSPGQSITISCTGTSSNIGTYKFVSWYQQHPDKAPKVLLYEVSKRPSGVSSRFSGSKSGNTASLTISGLQAEDQADYHCVSYAGSGTLLFGGGTKLTVLG
notes: HC is IgG4 S228P, F234A, L235A, F405L, R409K; also called anti-CD3 antibody; bivalent CD3B376
rh-Integrin a4b7 [1]
  binding result: no binding
rh-CD19 [2]
  binding result: no binding
B-Defensin-3 [3]
  binding result: no binding
rh-Integrin a4b7 [4]
  response unit (RU): 0 RU
Soy Trypsin Inhibitor
  response unit (RU): 19.5 RU
rh-CD19 [5]
  response unit (RU): 0 RU
Lysozyme
  response unit (RU): 0.2 RU
Human IgG
  response unit (RU): 0.4 RU
B-Defensin-3 [6]
  response unit (RU): 3.1 RU

B3: TMCB150 (bispecific antibody, human IgG4 S228P, kappa, lambda, F234A L235A)
heavy 1: not shown
light 1: not shown
heavy 2: QVQLQQSGPRLVRPSQTLSLTCAISGDSVFNNNAAWSWIRQSPSRGLEWLGRTYYRSKWLYDYAVSVKSRITVNPDTSRNQFTLQLNSVTPEDTALYYCARGYSSSFDYWGQGTLVTVSSASTKGPSVFPLAPCSRSTSESTAALGCLVKDYFPEPVTVSWNSGALTSGVHTFPAVLQSSGLYSLSSVVTVPSSSLGTKTYTCNVDHKPSNTKVDKRVESKYGPPCPPCPAPEAAGGPSVFLFPPKPKDTLMISRTPEVTCVVVDVSQEDPEVQFNWYVDGVEVHNAKTKPREEQFNSTYRVVSVLTVLHQDWLNGKEYKCKVSNKGLPSSIEKTISKAKGQPREPQVYTLPPSQEEMTKNQVSLTCLVKGFYPSDIAVEWESNGQPENNYKTTPPVLDSDGSFLLYSKLTVDKSRWQEGNVFSCSVMHEALHNHYTQKSLSLSLGK
light 2: QSALTQPASVSGSPGQSITISCTGTSSNIGTYKFVSWYQQHPDKAPKVLLYEVSKRPSGVSSRFSGSKSGNTASLTISGLQAEDQADYHCVSYAGSGTLLFGGGTKLTVLGQPKAAPSVTLFPPSSEELQANKATLVCLISDFYPGAVTVAWKADSSPVKAGVETTTPSKQSNNKYAASSYLSLTPEQWKSHRSYSCQVTHEGSTVEKTVAPTECS
notes: made by Fab arm exchange of the parental IgG4PAA mAbs, so the chains are those of TMEB762 (HC 91, LC 92) and CD3B376 (HC 78, LC 79); also called TMEB762xCD3B376; bispecific anti-TMEFF2/CD3 antibody
rh-Integrin a4b7 [1]
  binding result: no binding
rh-CD19 [2]
  binding result: no binding
B-Defensin-3 [3]
  binding result: no binding
rh-Integrin a4b7 [4]
  response unit (RU): 0 RU
Soy Trypsin Inhibitor
  response unit (RU): 1.6 RU
rh-CD19 [5]
  response unit (RU): 3.4 RU
Lysozyme
  response unit (RU): 4.2 RU
Human IgG
  response unit (RU): 7.5 RU
B-Defensin-3 [6]
  response unit (RU): 6.4 RU
